# Target: mouse GDF-8 pro-domain without tag, lacking the signal peptide, released from WT-GDF-8-F in QM-7 cells (mouse) (UniProt O08689)
# Assay: cell-based or functional assay
# UniProt O08689, sequence (O08689 20-267 limits assumed): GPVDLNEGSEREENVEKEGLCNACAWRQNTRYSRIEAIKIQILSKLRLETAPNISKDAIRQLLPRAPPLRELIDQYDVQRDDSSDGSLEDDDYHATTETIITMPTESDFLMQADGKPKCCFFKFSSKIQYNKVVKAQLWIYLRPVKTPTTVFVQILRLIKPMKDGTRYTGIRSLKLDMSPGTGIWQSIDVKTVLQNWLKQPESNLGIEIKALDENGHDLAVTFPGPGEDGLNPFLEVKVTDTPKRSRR
substance,measurement,value
m-calpain (enzyme),"luciferase activity of affinity-purified GDF-8 complexes after 1U/ml m-calpain for 2 hours at 37° C, against the untreated control",2.5 fold

# — patent publication EP1147413B1
